Test results: patent US20220332804A1 (CSL INNOVATION, published 2022)
Where a chain is given by its changes, count along the chain named.

T1: human C2 N403A (human, UniProt P06681 21-752)
T1 sequence: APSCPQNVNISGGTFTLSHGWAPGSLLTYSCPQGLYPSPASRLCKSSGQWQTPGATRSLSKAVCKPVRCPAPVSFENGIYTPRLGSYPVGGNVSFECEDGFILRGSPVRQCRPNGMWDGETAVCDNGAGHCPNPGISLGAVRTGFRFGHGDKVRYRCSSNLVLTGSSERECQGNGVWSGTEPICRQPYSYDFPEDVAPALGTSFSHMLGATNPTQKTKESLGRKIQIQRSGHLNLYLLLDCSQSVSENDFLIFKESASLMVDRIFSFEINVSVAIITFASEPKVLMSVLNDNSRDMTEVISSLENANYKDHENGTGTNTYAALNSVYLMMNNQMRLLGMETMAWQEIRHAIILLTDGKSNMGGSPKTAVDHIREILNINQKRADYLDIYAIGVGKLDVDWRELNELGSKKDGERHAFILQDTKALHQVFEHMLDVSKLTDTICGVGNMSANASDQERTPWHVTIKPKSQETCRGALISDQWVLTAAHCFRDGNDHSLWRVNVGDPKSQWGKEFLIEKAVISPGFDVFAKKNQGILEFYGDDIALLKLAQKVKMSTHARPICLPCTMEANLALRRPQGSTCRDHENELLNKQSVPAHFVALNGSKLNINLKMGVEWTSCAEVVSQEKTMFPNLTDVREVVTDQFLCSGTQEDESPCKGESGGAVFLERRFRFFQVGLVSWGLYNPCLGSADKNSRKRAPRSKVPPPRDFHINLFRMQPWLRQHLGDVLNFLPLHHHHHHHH

T2: human C2 E267A (human, UniProt P06681 21-752)
T2 sequence: T1 sequence with E247A, A383N

T3: human C2 Y328A (human, UniProt P06681 21-752)
T3 sequence: T1 sequence with Y308A, A383N

T4: human C2 E686A (human, UniProt P06681 21-752)
T4 sequence: T1 sequence with A383N, E666A

B1: RF16-214 (antibody, V domains shown)
VH: EVQLLESGGGLVQPGGSLRLSCAASGFTFSWYQMMWVRQAPGKGLEWVSRIYPSGGGTAYADSVKGRFTISRDNSKNTLYLQMNSLRAEDTAVYYCARDAGYGDNWGQGTLVTVSS
VL: QSALTQPPSVSVSPGQTASITCSGDKLGEKYASWYQQKAGQSPVMVIYQDRKRPSGIPERFSGSNSGNTATLTISGTQAMDEADYYCQAWDTRAVVFGGGTKLTVLG
B2: RF16-242 (antibody, human IgG4 S228P, lambda, V domains shown)
VH: EVQLLQSGAEVKKPGESLKISCKGSGYSFTSYWIGWVRQMPGKGLEWMGIIYPGDSDTRYSPSFQGQVTISADKSISTAYLQWSSLKASDTAMYYCARRGHYGDYFDYWGQGTLVTVSS
VL: SYELTQPPSVSVSPGQTARITCSGDALPKKYAYWYHQKSGQAPVLVIYEDRRRPSEIPERFSGSSSGTMATLTITGAQVEDEGVYFCYSRDRAGNQRVFGGGTQLTVLG
notes: pH-dependent anti-C2 antibody from a phage display library

Columns and labels:
human C2 N403A = molecular target: T1, human C2 N403A; assay: SPR; KD relative to WT C2;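 also: biacore SPR at 37 °C, anti-C2 mAbs captured on an anti-human IgG chip, alanine or serine C2 surface mutants tested, KD from 1:1 fit compared with wild-type C2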
human C2 E267A = molecular target: T2, human C2 E267A; assay: SPR; KD relative to WT C2;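 also: biacore SPR at 37 °C, anti-C2 mAbs captured on an anti-human IgG chip, alanine or serine C2 surface mutants tested, KD from 1:1 fit compared with wild-type C2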
human C2 Y328A = molecular target: T3, human C2 Y328A; assay: SPR, KD relative to WT C2;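 also: biacore SPR at 37 °C, anti-C2 mAbs captured on anti-human IgG chips with alanine or serine point mutants of C2 as analyte, KD from 1:1 fit compared with wild-type C2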
human C2 E686A = molecular target: T4, human C2 E686A; assay: SPR, KD relative to WT C2;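 also: biacore SPR at 37 °C, anti-C2 mAbs captured on anti-human IgG chips with alanine or serine point mutants of C2 as analyte, KD from 1:1 fit compared with wild-type C2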

| Binder | Fold diff (human C2 N403A) [fold] | Fold diff (human C2 E267A) [fold] | Fold diff (human C2 Y328A) [fold] | Fold diff (human C2 E686A) [fold] |
| --- | --- | --- | --- | --- |
| B1 | 1 | 1 |  |  |
| B2 |  |  | 6 | 5 |
